Reference: the supplement of paper PMC10724198
± gives the standard deviation of the averaged measurements.

How the values were obtained:
Saccharomyces cerevisiae [1] = test: protein stability index of tFT-peptide fusion (C-terminal peptide) (PSI (0-1 scale)); higher = more stable (slower turnover); conditions: genetic background: wild type; temperature: 30 C
Saccharomyces cerevisiae [2] = test: as above
Procedure: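 MPS profiling in S. cerevisiae of the tFT-X12 degron library: putative degron peptides plus stable controls, 12 aa, fused to the C-terminus of a sfGFP-mCherry timer. Cells are FACS-sorted into 8 mCherry/sfGFP bins and deep-sequenced. PSI runs from 0 (unstable) to 1 (stable). Backgrounds are wild type, das1Δ and doa10Δ at 30 °C, and wild type, das1Δ, cdc34-1 and cdc53-1 at 37 °C; 2-3 technical replicates each.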

[3] = genetic background: cdc34-1, temperature: 37 C
[4] = genetic background: cdc53-1, temperature: 37 C
[5] = genetic background: das1 deletion, temperature: 30 C
[6] = genetic background: das1 deletion, temperature: 37 C
[7] = genetic background: doa10 deletion, temperature: 30 C
[8] = genetic background: wild type, temperature: 30 C
[9] = genetic background: wild type, temperature: 37 C
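Note: PSI is a weighted mean of sequencing reads over stability bins, variants kept only with over 10 reads, mCherry proximal and sfGFP distal, peptide attached via GGGS linker.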

## RLPSSNVRYWVS
Saccharomyces cerevisiae [1]
  protein stability index: 0.235 ± 0.035
Saccharomyces cerevisiae [2]; [3]
  protein stability index: 0.637 ± 0.037
Saccharomyces cerevisiae [2]; [4]
  protein stability index: 0.729 ± 0.012
Saccharomyces cerevisiae [2]; [5]
  protein stability index: 0.64 ± 0.012
Saccharomyces cerevisiae [2]; [6]
  protein stability index: 0.751 ± 0.032
Saccharomyces cerevisiae [2]; [7]
  protein stability index: 0.1599 ± 0.001
Saccharomyces cerevisiae [2]; [8]
  protein stability index: 0.183 ± 0.012
Saccharomyces cerevisiae [2]; [9]
  protein stability index: 0.394 ± 0.037

## RNDCAYHVLQIV
Saccharomyces cerevisiae [1]
  protein stability index: 0.228 ± 0.0084
Saccharomyces cerevisiae [2]; [3]
  protein stability index: 0.607 ± 0.016
Saccharomyces cerevisiae [2]; [4]
  protein stability index: 0.722 ± 0.054
Saccharomyces cerevisiae [2]; [5]
  protein stability index: 0.646 ± 0.015
Saccharomyces cerevisiae [2]; [6]
  protein stability index: 0.7115 ± 0.0031
Saccharomyces cerevisiae [2]; [7]
  protein stability index: 0.181 ± 0.0022
Saccharomyces cerevisiae [2]; [8]
  protein stability index: 0.202 ± 0.035
Saccharomyces cerevisiae [2]; [9]
  protein stability index: 0.381 ± 0.0042

## RNTLLFKRILHI
Saccharomyces cerevisiae [1]
  protein stability index: 0.165 ± 0.059
Saccharomyces cerevisiae [2]; [3]
  protein stability index: 0.671 ± 0.028
Saccharomyces cerevisiae [2]; [4]
  protein stability index: 0.706 ± 0.017
Saccharomyces cerevisiae [2]; [5]
  protein stability index: 0.637 ± 0.032
Saccharomyces cerevisiae [2]; [6]
  protein stability index: 0.77 ± 0.018
Saccharomyces cerevisiae [2]; [7]
  protein stability index: 0.0865 ± 0.024
Saccharomyces cerevisiae [2]; [8]
  protein stability index: 0.108 ± 0.045
Saccharomyces cerevisiae [2]; [9]
  protein stability index: 0.154 ± 0.0032

## RPPSLVFLFLLT
Saccharomyces cerevisiae [1]
  protein stability index: 0.441 ± 0.032
Saccharomyces cerevisiae [2]; [3]
  protein stability index: 0.551 ± 0.062
Saccharomyces cerevisiae [2]; [4]
  protein stability index: 0.587 ± 0.021
Saccharomyces cerevisiae [2]; [5]
  protein stability index: 0.441 ± 0.048
Saccharomyces cerevisiae [2]; [6]
  protein stability index: 0.598 ± 0.01
Saccharomyces cerevisiae [2]; [7]
  protein stability index: 0.401 ± 0.026
Saccharomyces cerevisiae [2]; [8]
  protein stability index: 0.395 ± 0.015
Saccharomyces cerevisiae [2]; [9]
  protein stability index: 0.573 ± 0.023

## RRGGNIVWYCLV
Saccharomyces cerevisiae [1]
  protein stability index: 0.234 ± 0.017
Saccharomyces cerevisiae [2]; [3]
  protein stability index: 0.588 ± 0.025
Saccharomyces cerevisiae [2]; [4]
  protein stability index: 0.694 ± 0.015
Saccharomyces cerevisiae [2]; [5]
  protein stability index: 0.634 ± 0.0066
Saccharomyces cerevisiae [2]; [6]
  protein stability index: 0.714 ± 0.011
Saccharomyces cerevisiae [2]; [7]
  protein stability index: 0.125 ± 0.0088
Saccharomyces cerevisiae [2]; [8]
  protein stability index: 0.148 ± 0.017
Saccharomyces cerevisiae [2]; [9]
  protein stability index: 0.24 ± 0.0074

## RRIILAGLFLIS
Saccharomyces cerevisiae [1]
  protein stability index: 0.403 ± 0.0097
Saccharomyces cerevisiae [2]; [3]
  protein stability index: 0.586 ± 0.028
Saccharomyces cerevisiae [2]; [4]
  protein stability index: 0.613 ± 0.029
Saccharomyces cerevisiae [2]; [5]
  protein stability index: 0.437 ± 0.033
Saccharomyces cerevisiae [2]; [6]
  protein stability index: 0.623 ± 0.046
Saccharomyces cerevisiae [2]; [7]
  protein stability index: 0.332 ± 0.021
Saccharomyces cerevisiae [2]; [8]
  protein stability index: 0.353 ± 0.014
Saccharomyces cerevisiae [2]; [9]
  protein stability index: 0.537 ± 0.0093

## RRMGLRLFLLWM
Saccharomyces cerevisiae [1]
  protein stability index: 0.4517 ± 0.0011
Saccharomyces cerevisiae [2]; [3]
  protein stability index: 0.649 ± 0.045
Saccharomyces cerevisiae [2]; [4]
  protein stability index: 0.657 ± 0.0097
Saccharomyces cerevisiae [2]; [5]
  protein stability index: 0.534 ± 0.026
Saccharomyces cerevisiae [2]; [6]
  protein stability index: 0.67 ± 0.015
Saccharomyces cerevisiae [2]; [7]
  protein stability index: 0.354 ± 0.021
Saccharomyces cerevisiae [2]; [8]
  protein stability index: 0.348 ± 0.032
Saccharomyces cerevisiae [2]; [9]
  protein stability index: 0.539 ± 0.015

## RSAVECRVTNIR
Saccharomyces cerevisiae [1]
  protein stability index: 0.546 ± 0.08
Saccharomyces cerevisiae [2]; [3]
  protein stability index: 0.701 ± 0.031
Saccharomyces cerevisiae [2]; [4]
  protein stability index: 0.7227 ± 0.00094
Saccharomyces cerevisiae [2]; [5]
  protein stability index: 0.637 ± 0.018
Saccharomyces cerevisiae [2]; [6]
  protein stability index: 0.724 ± 0.01
Saccharomyces cerevisiae [2]; [7]
  protein stability index: 0.639 ± 0.015
Saccharomyces cerevisiae [2]; [8]
  protein stability index: 0.658 ± 0.036
Saccharomyces cerevisiae [2]; [9]
  protein stability index: 0.715 ± 0.024

## RSFSKRSFMFLC
Saccharomyces cerevisiae [1]
  protein stability index: 0.263 ± 0.012
Saccharomyces cerevisiae [2]; [3]
  protein stability index: 0.621 ± 0.025
Saccharomyces cerevisiae [2]; [4]
  protein stability index: 0.728 ± 0.11
Saccharomyces cerevisiae [2]; [5]
  protein stability index: 0.646 ± 0.018
Saccharomyces cerevisiae [2]; [6]
  protein stability index: 0.734 ± 0.0094
Saccharomyces cerevisiae [2]; [7]
  protein stability index: 0.154 ± 0.0079
Saccharomyces cerevisiae [2]; [8]
  protein stability index: 0.172 ± 0.0087
Saccharomyces cerevisiae [2]; [9]
  protein stability index: 0.227 ± 0.0064

## RSNLSKSWHRIG
Saccharomyces cerevisiae [1]
  protein stability index: 0.207 ± 0.038
Saccharomyces cerevisiae [2]; [3]
  protein stability index: 0.538 ± 0.065
Saccharomyces cerevisiae [2]; [4]
  protein stability index: 0.689 ± 0.014
Saccharomyces cerevisiae [2]; [5]
  protein stability index: 0.645 ± 0.028
Saccharomyces cerevisiae [2]; [6]
  protein stability index: 0.743 ± 0.015
Saccharomyces cerevisiae [2]; [7]
  protein stability index: 0.101 ± 0.011
Saccharomyces cerevisiae [2]; [8]
  protein stability index: 0.11 ± 0.029
Saccharomyces cerevisiae [2]; [9]
  protein stability index: 0.212 ± 0.074

## RTMLSNRIKSFI
Saccharomyces cerevisiae [1]
  protein stability index: 0.415 ± 0.014
Saccharomyces cerevisiae [2]; [3]
  protein stability index: 0.6235 ± 0.0026
Saccharomyces cerevisiae [2]; [4]
  protein stability index: 0.701 ± 0.038
Saccharomyces cerevisiae [2]; [5]
  protein stability index: 0.642 ± 0.014
Saccharomyces cerevisiae [2]; [6]
  protein stability index: 0.723 ± 0.02
Saccharomyces cerevisiae [2]; [7]
  protein stability index: 0.239 ± 0.0068
Saccharomyces cerevisiae [2]; [8]
  protein stability index: 0.244 ± 0.021
Saccharomyces cerevisiae [2]; [9]
  protein stability index: 0.519 ± 0.025

## RVRRETRLRQIA
Saccharomyces cerevisiae [1]
  protein stability index: 0.27 ± 0.047
Saccharomyces cerevisiae [2]; [3]
  protein stability index: 0.597 ± 0.0087
Saccharomyces cerevisiae [2]; [4]
  protein stability index: 0.732 ± 0.043
Saccharomyces cerevisiae [2]; [5]
  protein stability index: 0.65 ± 0.024
Saccharomyces cerevisiae [2]; [6]
  protein stability index: 0.71 ± 0.021
Saccharomyces cerevisiae [2]; [7]
  protein stability index: 0.1423 ± 0.00049
Saccharomyces cerevisiae [2]; [8]
  protein stability index: 0.147 ± 0.0031
Saccharomyces cerevisiae [2]; [9]
  protein stability index: 0.269 ± 0.0076

## RVVNRWGVCFLG
Saccharomyces cerevisiae [1]
  protein stability index: 0.231 ± 0.0097
Saccharomyces cerevisiae [2]; [3]
  protein stability index: 0.6 ± 0.0065
Saccharomyces cerevisiae [2]; [4]
  protein stability index: 0.7178 ± 0.0067
Saccharomyces cerevisiae [2]; [5]
  protein stability index: 0.639 ± 0.014
Saccharomyces cerevisiae [2]; [6]
  protein stability index: 0.733 ± 0.021
Saccharomyces cerevisiae [2]; [7]
  protein stability index: 0.124 ± 0.014
Saccharomyces cerevisiae [2]; [8]
  protein stability index: 0.131 ± 0.0093
Saccharomyces cerevisiae [2]; [9]
  protein stability index: 0.199 ± 0.015

## RVWTTVFIIRAT
Saccharomyces cerevisiae [1]
  protein stability index: 0.333 ± 0.062
Saccharomyces cerevisiae [2]; [3]
  protein stability index: 0.595 ± 0.032
Saccharomyces cerevisiae [2]; [4]
  protein stability index: 0.609 ± 0.055
Saccharomyces cerevisiae [2]; [5]
  protein stability index: 0.493 ± 0.03
Saccharomyces cerevisiae [2]; [6]
  protein stability index: 0.6146 ± 0.0043
Saccharomyces cerevisiae [2]; [7]
  protein stability index: 0.216 ± 0.023
Saccharomyces cerevisiae [2]; [8]
  protein stability index: 0.229 ± 0.024
Saccharomyces cerevisiae [2]; [9]
  protein stability index: 0.424 ± 0.023

## RYLHFASLLFAS
Saccharomyces cerevisiae [1]
  protein stability index: 0.364 ± 0.014
Saccharomyces cerevisiae [2]; [3]
  protein stability index: 0.658 ± 0.019
Saccharomyces cerevisiae [2]; [4]
  protein stability index: 0.709 ± 0.0084
Saccharomyces cerevisiae [2]; [5]
  protein stability index: 0.585 ± 0.012
Saccharomyces cerevisiae [2]; [6]
  protein stability index: 0.729 ± 0.0093
Saccharomyces cerevisiae [2]; [7]
  protein stability index: 0.179 ± 0.006
Saccharomyces cerevisiae [2]; [8]
  protein stability index: 0.226 ± 0.035
Saccharomyces cerevisiae [2]; [9]
  protein stability index: 0.52 ± 0.016

## SDVLVVWVFFCR
Saccharomyces cerevisiae [1]
  protein stability index: 0.405 ± 0.043
Saccharomyces cerevisiae [2]; [3]
  protein stability index: 0.292 ± 0.0075
Saccharomyces cerevisiae [2]; [4]
  protein stability index: 0.4196 ± 0.0033
Saccharomyces cerevisiae [2]; [5]
  protein stability index: 0.26 ± 0.032
Saccharomyces cerevisiae [2]; [6]
  protein stability index: 0.466 ± 0.013
Saccharomyces cerevisiae [2]; [7]
  protein stability index: 0.216 ± 0.029
Saccharomyces cerevisiae [2]; [8]
  protein stability index: 0.263 ± 0.037
Saccharomyces cerevisiae [2]; [9]
  protein stability index: 0.435 ± 0.0063

## SELLVHVVFWLA
Saccharomyces cerevisiae [1]
  protein stability index: 0.247 ± 0.025
Saccharomyces cerevisiae [2]; [3]
  protein stability index: 0.268 ± 0.013
Saccharomyces cerevisiae [2]; [4]
  protein stability index: 0.438 ± 0.038
Saccharomyces cerevisiae [2]; [5]
  protein stability index: 0.289 ± 0.03
Saccharomyces cerevisiae [2]; [6]
  protein stability index: 0.463 ± 0.012
Saccharomyces cerevisiae [2]; [7]
  protein stability index: 0.1383 ± 0.00086
Saccharomyces cerevisiae [2]; [8]
  protein stability index: 0.176 ± 0.019
Saccharomyces cerevisiae [2]; [9]
  protein stability index: 0.303 ± 0.011

## SFAVSSDYLFII
Saccharomyces cerevisiae [1]
  protein stability index: 0.401 ± 0.019
Saccharomyces cerevisiae [2]; [3]
  protein stability index: 0.69 ± 0.099
Saccharomyces cerevisiae [2]; [4]
  protein stability index: 0.788 ± 0.028
Saccharomyces cerevisiae [2]; [5]
  protein stability index: 0.689 ± 0.034
Saccharomyces cerevisiae [2]; [6]
  protein stability index: 0.808 ± 0.032
Saccharomyces cerevisiae [2]; [7]
  protein stability index: 0.316 ± 0.037
Saccharomyces cerevisiae [2]; [8]
  protein stability index: 0.361 ± 0.023
Saccharomyces cerevisiae [2]; [9]
  protein stability index: 0.582 ± 0.01

## SFCSFVFVTFVL
Saccharomyces cerevisiae [1]
  protein stability index: 0.455 ± 0.033
Saccharomyces cerevisiae [2]; [3]
  protein stability index: 0.4 ± 0.031
Saccharomyces cerevisiae [2]; [4]
  protein stability index: 0.4842 ± 0.0023
Saccharomyces cerevisiae [2]; [5]
  protein stability index: 0.321 ± 0.044
Saccharomyces cerevisiae [2]; [6]
  protein stability index: 0.508 ± 0.022
Saccharomyces cerevisiae [2]; [7]
  protein stability index: 0.317 ± 0.016
Saccharomyces cerevisiae [2]; [8]
  protein stability index: 0.312 ± 0.02
Saccharomyces cerevisiae [2]; [9]
  protein stability index: 0.52 ± 0.058

## SFFCFFLSFFYL
Saccharomyces cerevisiae [1]
  protein stability index: 0.502 ± 0.015
Saccharomyces cerevisiae [2]; [3]
  protein stability index: 0.571 ± 0.027
Saccharomyces cerevisiae [2]; [4]
  protein stability index: 0.53 ± 0.0091
Saccharomyces cerevisiae [2]; [5]
  protein stability index: 0.471 ± 0.011
Saccharomyces cerevisiae [2]; [6]
  protein stability index: 0.562 ± 0.018
Saccharomyces cerevisiae [2]; [7]
  protein stability index: 0.475 ± 0.025
Saccharomyces cerevisiae [2]; [8]
  protein stability index: 0.445 ± 0.013
Saccharomyces cerevisiae [2]; [9]
  protein stability index: 0.539 ± 0.02
